Laboratory results reported in IntAct's records for PubMed 20173330.

The substances below were run against jip4_mouse Spag9 (UniProt Q58A65).
Chain of UniProt Q58A65 (Q58A65 whole entry): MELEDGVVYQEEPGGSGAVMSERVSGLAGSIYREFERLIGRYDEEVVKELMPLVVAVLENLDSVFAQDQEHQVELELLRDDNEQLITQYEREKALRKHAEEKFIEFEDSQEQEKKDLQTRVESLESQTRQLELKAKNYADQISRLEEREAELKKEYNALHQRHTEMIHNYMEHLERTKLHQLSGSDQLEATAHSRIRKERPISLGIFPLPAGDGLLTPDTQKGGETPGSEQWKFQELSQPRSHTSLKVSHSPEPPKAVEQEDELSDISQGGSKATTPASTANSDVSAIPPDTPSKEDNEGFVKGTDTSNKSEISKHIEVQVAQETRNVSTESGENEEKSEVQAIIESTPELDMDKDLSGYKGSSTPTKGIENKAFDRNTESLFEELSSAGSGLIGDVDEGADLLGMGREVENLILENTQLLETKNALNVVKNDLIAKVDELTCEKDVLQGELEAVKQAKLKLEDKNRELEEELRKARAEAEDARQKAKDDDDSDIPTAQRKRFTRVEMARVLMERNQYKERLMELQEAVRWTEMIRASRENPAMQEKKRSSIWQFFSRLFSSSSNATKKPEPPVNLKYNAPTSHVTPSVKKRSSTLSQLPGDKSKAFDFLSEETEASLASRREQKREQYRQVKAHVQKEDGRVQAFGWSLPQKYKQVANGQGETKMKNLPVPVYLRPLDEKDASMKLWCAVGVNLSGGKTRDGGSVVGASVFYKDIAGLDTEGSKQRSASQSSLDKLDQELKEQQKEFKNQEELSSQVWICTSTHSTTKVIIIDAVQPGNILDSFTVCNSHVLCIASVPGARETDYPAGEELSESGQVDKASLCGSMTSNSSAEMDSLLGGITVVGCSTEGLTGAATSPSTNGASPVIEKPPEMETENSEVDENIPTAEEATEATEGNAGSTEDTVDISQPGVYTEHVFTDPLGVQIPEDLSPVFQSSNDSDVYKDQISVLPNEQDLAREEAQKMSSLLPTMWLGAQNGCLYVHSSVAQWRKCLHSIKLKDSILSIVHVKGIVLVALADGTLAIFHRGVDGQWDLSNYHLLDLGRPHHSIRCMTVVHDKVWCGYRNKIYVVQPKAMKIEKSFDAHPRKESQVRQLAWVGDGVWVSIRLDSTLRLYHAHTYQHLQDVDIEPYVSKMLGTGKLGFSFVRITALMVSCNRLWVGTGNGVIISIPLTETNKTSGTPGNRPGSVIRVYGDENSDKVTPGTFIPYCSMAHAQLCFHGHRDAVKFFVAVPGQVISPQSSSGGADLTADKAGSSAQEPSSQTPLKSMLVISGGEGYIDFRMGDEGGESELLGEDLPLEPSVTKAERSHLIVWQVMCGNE
“Leucine-rich repeat serine/threonine-protein kinase 2 (Homo sapiens), Q5S007 G2019S” was tested, and the “effect of a mutation on the interaction” value was “increasing interaction”. In the case of “Leucine-rich repeat serine/threonine-protein kinase 2 (Homo sapiens), Q5S007 I2020T”, the “effect of a mutation on the interaction” value is reported as “increasing interaction”. For “Leucine-rich repeat serine/threonine-protein kinase 2 (Homo sapiens), Q5S007 R1441C”, the “effect of a mutation on the interaction” value was “increasing interaction”. For “Leucine-rich repeat serine/threonine-protein kinase 2 (Homo sapiens), Q5S007 Y1699C”, the “effect of a mutation on the interaction” value was “decreasing interaction”.
